Positions count from the first letter of the chain named.
T1: mouse IL-1β (mouse, UniProt P10749 118-269)
T1 sequence (looked up): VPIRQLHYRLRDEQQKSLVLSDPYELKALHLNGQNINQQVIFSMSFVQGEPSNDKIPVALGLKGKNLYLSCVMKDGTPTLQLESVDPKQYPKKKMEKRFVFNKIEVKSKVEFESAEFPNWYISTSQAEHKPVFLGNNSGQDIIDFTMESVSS

T2: IL-1β receptor IL-1R on the surface of HEK-Blue IL-1β cells (UniProt P14778 18-569, limits assumed)
T2 sequence (looked up): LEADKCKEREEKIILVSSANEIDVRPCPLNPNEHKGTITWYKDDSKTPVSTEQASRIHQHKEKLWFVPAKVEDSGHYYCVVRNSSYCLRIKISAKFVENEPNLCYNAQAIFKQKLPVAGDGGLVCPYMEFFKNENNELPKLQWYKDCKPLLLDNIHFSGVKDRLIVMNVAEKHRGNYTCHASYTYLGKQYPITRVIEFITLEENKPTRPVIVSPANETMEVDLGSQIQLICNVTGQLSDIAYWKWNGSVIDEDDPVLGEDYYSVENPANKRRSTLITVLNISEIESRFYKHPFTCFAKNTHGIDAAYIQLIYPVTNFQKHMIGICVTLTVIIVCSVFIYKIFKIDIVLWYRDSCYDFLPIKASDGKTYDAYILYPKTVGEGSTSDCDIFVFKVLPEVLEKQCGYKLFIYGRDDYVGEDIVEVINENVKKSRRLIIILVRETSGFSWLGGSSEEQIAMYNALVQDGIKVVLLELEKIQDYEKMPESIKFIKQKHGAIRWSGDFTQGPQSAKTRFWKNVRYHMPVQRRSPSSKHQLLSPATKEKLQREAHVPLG

T3: human IL-1α (human, UniProt P01583 113-271)
T3 construct: Purified recombinant protein
T3 sequence (looked up): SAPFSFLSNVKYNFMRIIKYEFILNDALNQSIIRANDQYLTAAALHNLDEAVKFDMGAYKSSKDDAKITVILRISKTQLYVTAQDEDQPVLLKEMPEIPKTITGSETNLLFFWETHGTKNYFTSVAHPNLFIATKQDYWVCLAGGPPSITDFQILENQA

B1: mouse monoclonal anti-human IL-1β antibody TAVO304 (antibody, V domains shown)
VH: DVQLVESGGGLVQPGGSRKLSCAASGFTFSSFGMHWVRQAPEKGLEWVAYISIGSYTVHYADTVKGRFTISRDNPKNTLFLQMTSLRSEDTAMYYCVRDDYDVTDYTMDYWGQGTSVTVSS
VL: DIVMSQSPSSLAVSTGEKVTMSCKSSQSLLNSRTRKNYLAWYQQKPGQSPKLLIYWASTRESGVPDRFTGSGSGTDFTLTIGSVQAEDLAVYYCKQTYNFPTFGGGTKLEIK
notes: Mouse monoclonal antibody from hybridoma screening
B2: Rhesus monkey IL-1β (ligand, UniProt P48090 117-269, looked up)
chain: APVRSLHCTLRDAQLKSLVMSGPYELKALHLQGQDLEQQVVFSMSFVQGEESNDKIPVALGLKAKNLYLSCVLKDDKPTLQLESVDPKNYPKKKMEKRFVFNKIEINNKLEFESAQFPNWYISTSQAENMPVFLGGTRGGQDITDFTMQFVSS
B3: TAVO7376 (humanized IgG1 antibody, 304VH1 with 304VL1) (antibody, V domains shown)
VH: EVQLVESGGGLVQPGGSLRLSCAASGFTFSSFGMHWVRQAPGKGLEWVAYISIGSYTVHYADSVKGRFTISRDNAKNSLYLQMNSLRDEDTAVYYCVRDDYDVTDYTMDYWGQGTTVTVSS
VL: DIQMTQSPSSLSASVGDRVTITCKSSQSLLNSRTRKNYLAWYQQKPGKAPKLLIYWASTRESGVPSRFSGSGSGTDFTLTISSLQPEDFATYYCKQTYNFPTFGQGTKLEIKR
notes: Humanized IgG1
B4: TAVO7377 (humanized IgG1 antibody, 304VH1 with 304VL2) (antibody, V domains shown)
VH: B3 VH
VL: B3 VL with I21M, L84V, F89L
notes: Humanized IgG1

What was measured:
mouse IL-1β = molecular target: T1, mouse IL-1β; assay: ELISA, plate coated with mouse IL-1β
Method: (§1) By hybridoma screening, TAVO304 was identified as a mouse anti-human IL-1β antibody. ELISA-based binding assay was employed to evaluate TAVO304 binding to recombinant human IL-1β. In this assay, 1 μg/ml recombinant human IL-1β (R&D systems) were coated on ELISA plate. Increasing concentrations of TAVO304 antibodies were applied on the plate and their binding to the recombinant human IL-1P were detected by HRP-conjugated anti-mouse secondary antibody.
(§2) The binding of TAVO304 to mouse and Rhesus monkey IL-1β were also evaluated in similar ELISA assay by coating the plate with mouse and Rhesus monkey IL-1β respectively.

[1] = molecular target: T4, recombinant human IL-1β (R&D systems) (human, UniProt P01584 117-269); assay: ELISA, 1 µg/ml recombinant human IL-1β coated, HRP anti-mouse secondary antibody
T4 construct: Bought recombinant protein; also called human interleukin 1β
Method: as §1

Rhesus monkey IL-1β [2] = molecular target: B2; assay: cell-based or functional assay
[3] = molecular target: T4, recombinant human IL-1β (R&D systems); assay: cell-based or functional assay
Rhesus monkey IL-1β [4] = molecular target: B2; assay: ELISA, plate coated with Rhesus monkey IL-1β
Method: as §1, §2

[5] = molecular target: T2, IL-1β receptor IL-1R on the surface of …; assay: cell-based or functional assay
human IL-1α = molecular target: T3, human IL-1α; assay: ELISA with purified recombinant protein
Method: To evaluate the binding specificity, cytokines homologous to IL-1β such as IL-1α were evaluated for binding to humanized antibodies in ELISA-based binding assay with purified recombinant protein.

binding result (mouse IL-1β) | EC50 [1] [µg/mL] | IC50 of neutralizing rhesus monkey IL-1β driven reporter gene expression, HEK-Blue IL-1β reporter assay (Rhesus monkey IL-1β [2]) [µg/mL] | IC50 of neutralizing human IL-1β driven reporter gene expression, HEK-Blue IL-1β reporter assay [3] [µg/mL] | fold potency against reference antibody refAb-1 in IL-1β inhibition, HEK-Blue IL-1β reporter assay [3] [fold] | EC50 (Rhesus monkey IL-1β [4]) [µg/mL] | EC50 of reporter gene (SEAP) expression in HEK-Blue IL-1β reporter assay [5] [µg/mL] | binding result (human IL-1α) | IC50 of blocking human IL-1β-mediated IL-6 release from MRC-5 cells [3] [µg/mL] | Binder
no binding | 0.0036 | 0.0036 | 0.12 | > 6 | 0.0122 |  |  |  | B1
 |  |  |  |  |  | 0.00016 |  |  | B2
 |  | ~0.018 | ~0.09 |  |  |  | no binding (tested: 1 ug/mL) | ~0.05 | B3
 |  | ~0.018 | ~0.09 |  |  |  | no binding (tested: 1 ug/mL) | ~0.05 | B4

Reference: US20230068783A1 (TAVOTEK BIOTHERAPEUTICS HONG KONG, published 2023)
